Test results taken from patent US7053177B1, “Random peptides that bind to gastro-intestinal tract (GIT) transport receptors and related methods” (Cytogen Corporation, priority 1997, dated 2006).
Square brackets hold non-standard residues; d marks the D form. Ends that are not written are not given here. Peptide text beside a SMILES is read from it. * marks the point of attachment. Dansyl = CN(C)c1cccc2c(S(=O)(=O)*)cccc12

T1: recombinant D2H receptor domain (human D2H transporter, amino acid residues 387-685), His-tag fusion protein (human) (UniProt Q07837)
T1 sequence: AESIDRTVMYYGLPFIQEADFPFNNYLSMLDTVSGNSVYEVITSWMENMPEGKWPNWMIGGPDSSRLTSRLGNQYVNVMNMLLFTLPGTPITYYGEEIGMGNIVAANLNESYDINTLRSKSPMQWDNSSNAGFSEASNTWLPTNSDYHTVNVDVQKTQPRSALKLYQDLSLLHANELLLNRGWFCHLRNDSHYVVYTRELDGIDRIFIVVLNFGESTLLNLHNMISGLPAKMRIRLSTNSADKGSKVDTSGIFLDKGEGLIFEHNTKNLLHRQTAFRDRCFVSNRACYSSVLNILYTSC


Tests used:
[1] = Peptide stability in simulated intestinal fluid (SIF); format: in vitro ADME; conditions: rank of relative stability to SIF
Description: Peptide (3.25 mg) was dissolved in 3.25 ml of 10,000 fold diluted SIF solution at 37° C. Aliquots (0.7 ml) of the digestion solution were then withdrawn at <1 min, 1h, 3h, and 21h or 24h. The samples were quickly passed through a syringe filter (Millipore Millex-GV 0.22 μm, part# SLGV025LS, lot# H2BM95250) and 300 μL of the filtered solution was immediately injected onto a Hewlett-Packard HPLC system equipped with a C-8 column (Applied Biosystems column and guard column: column-p/n 0711-0023 Spheri-5 ODS 5 μm, 220×4.6 mm). The products were eluted at 1.5 ml/min using an acetonitrile-water gradient. The major fluorescent peaks were collected, lyopholized and identified by MS analysis.

[2] = test system: P100 membrane fraction of Caco-2 cells; assay: Binding of dansylated peptides to P100 fractions (peptide/particle correlation)
Description: Caco-2 cell membrane (P100) and cytosolic (S100) fractions were prepared using a modification of the method described in Kinsella, B. T., O'Mahony, D. J. and G. A. FitzGerald, 1994, J. Biol. Chem. 269(47): 29914–29919. Confluent Caco-2 cell monolayers (grown in 75 cm^2 flasks for up to 1 week at 37° C. and 5% CO2) were washed twice in Dulbecco's PBS (DPBS) and the cells were harvested by centrifugation at 1000 rpm after treatment with 10 mM EDTA-DPBS. The cells were washed 3 times in DPBS and the final cell pellet was resuspended in 3 volumes of ice cold HED buffer (20 mM HEPES (pH 7.67), 1 mM EGTA, 0.5 mM dithiothreitol, 1 mM phenylmethylsulphonyl fluoride (PMSF)). The cells were allowed to swell for 5 min on ice prior to homogenization for 30 sec. The homogenates were centrifuged at 40,000 rpm for 45 min at 4° C. The supernatant (S100) was removed and the pellet (P100) was resuspended in HEDG buffer (20 mM HEPES (pH 7.67), 1 mM EGTA, 0.5 mM dithiothreitol, 100 mM NaCl, 10% glycerol, 1 mM PMSF). Protein concentrations were determined using the Bradford assay (Bradford, M. M., 1976, Anal. Biochem. 72: 248–254).
Binding of peptide and/or peptide-coated PLGA particles to membrane (P100) and cytosolic (S100) fractions was assessed by detection of the dansyl moiety incorporated in the peptide. Costar ninety six well ELISA plates were coated with S100 and P100 fractions (100 μg/ml in 0.05 M NaHCO3) overnight at 4° C. The plates were blocked with 0.5% bovine serum albumin in DPBS for 1 h at room temperature and washed 3 times in 1% BSA-DPBS. Peptide-coated particles or peptides were dispersed in the same buffer and added to the plates at concentrations in the range 0.0325–0.5 mg/well. […] The plates were incubated for 1 h at room temperature. The wells were washed 3 times in 1% BSA-DPBS and 100 μl of goat anti-mouse IgGλ:HRP antibody (Southern Biotechnology 1060-05; 1:10,000) was added per well. The plates were incubated for 1 h at room temperature. After washing 3 times in 1% BSA-DPBS 100 μl of TMB substrate (3,3′,5′,5-tetramethylbenzidine; Microwell Peroxidase Substrate System (Kirkegaard and Perry Laboratories 50-76-00)) was added and the optical density was measured at 650 nm at various time intervals.
Binding of dansylated peptides to P100 fractions was assessed to determine if peptide binding was predictive of peptide-coated particle binding.

[3] = test system: P100 membrane fraction of Caco-2 cells; assay: Dansylated peptide ELISA: relative binding of PAX2 and HAX42 peptides to P100 fractions (ratio to ZElan021); conditions: PAX2 peptides, first column, ratio to ZElan021 = 1.00
Procedure, shortened: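 Plates coated overnight at 4 °C with Caco-2 P100 membrane fraction (normally 100 μg/ml, pH 9.6) and blocked with 2% Marvel/PBS were incubated with dansylated peptides. Binding was detected with anti-mouse λ-HRP and TMB, read at 650 nm, and expressed relative to ZElan021.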

BSA = BSA (Bos taurus, UniProt P02769); assay: Receptor ELISA of phage on BSA (background control protein); format: binding; conditions: Table 5; phage panned on HPT-1
BSA, sequence (P02769 25-607): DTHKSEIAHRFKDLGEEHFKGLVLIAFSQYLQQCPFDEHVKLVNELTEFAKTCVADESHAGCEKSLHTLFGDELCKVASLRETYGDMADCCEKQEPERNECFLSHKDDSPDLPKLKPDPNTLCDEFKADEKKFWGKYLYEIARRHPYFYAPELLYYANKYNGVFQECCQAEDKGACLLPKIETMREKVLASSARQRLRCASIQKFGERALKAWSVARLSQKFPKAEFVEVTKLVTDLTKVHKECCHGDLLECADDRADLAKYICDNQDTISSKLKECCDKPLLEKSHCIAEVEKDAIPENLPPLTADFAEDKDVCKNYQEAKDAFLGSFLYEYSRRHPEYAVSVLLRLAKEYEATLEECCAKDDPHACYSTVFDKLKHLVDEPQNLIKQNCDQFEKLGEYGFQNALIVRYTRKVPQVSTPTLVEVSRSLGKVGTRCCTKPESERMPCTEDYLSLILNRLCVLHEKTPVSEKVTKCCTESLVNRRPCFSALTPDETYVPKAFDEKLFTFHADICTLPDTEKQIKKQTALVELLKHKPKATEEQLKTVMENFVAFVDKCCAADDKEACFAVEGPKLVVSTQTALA
Description: 96 well plates were coated overnight with GIT receptor, BSA and, optionally, IDE (insulin degrading enzyme, an irrelevant His-fusion protein)or hTF. The plates were blocked for one hour with 0.5% BSA-PBS. After clarification, the amplified phage were diluted 1:100 in 1% BSA plus 0.05% Tween 20 in PBS and added to the plates. Following incubation of the plates on a rotator for 1 to 2 hours, the plates were washed 5 times with 1% BSA plus 0.05% Tween 20 in PBS. Dilute anti-M13-HRP conjugate (anti-M13 antibody linked to horse radish peroxidase (HRP)) was added to all the wells and the plate was incubated for one hour on a rotator. After the plates were washed 5 times, as described above, TMB substrate was added to the wells. The plates were read at 650 nm absorbance.

[4] = test system: rat gastro-intestinal tract (closed loop); assay: Transport of preselected phage libraries in rat closed loop, detected by oligonucleotide hybridization/autoradiography; conditions: HPT1 pool; in words; PAX2 used at 4x concentration
Description: Four preselected phage libraries, GI-D2H, GI-hSI, GI-HPT1 and GI-hPEPT1, were constructed by pooling phage previously selected by screening random phage display libraries D38 and DC43 using the HPT1, HPEPT1, D2H and hSI receptor or binding sites located in the GIT.
In particular, phages selected in vitro to each receptor or binding site located in the GIT were amplified in E. coli, PEG-precipitated, resuspended in TBS and the titer of each phage sample was determined by plaquing in E. coli as described above. […] Using the in situ loop model described above, 0.5 ml of preselected phage library solution was injected into the tied-off portion of the duodenum/jejunum. Blood was collected into heparinized tubes from the portal vein at 0, 15, 30, 45 and 60 minutes. A blood sample was taken from the systemic circulation at the end of the experiment. Similarly, the portion of the duodenum/jejunum used for phage injection was taken at the end of the experiment.
Thirty microliters of the collected portal blood (neat and 10^−2, 10^−1, 10^−6 dilutions) was added to 30 μl E. coli K91Kan cells (overnight culture) and incubated at 37° C. for 10 min. Subsequently, 3 ml of top agarose was added and the samples were plated for plaques. One hundred microliters of the collected portal blood was added to 100 μl of E. coli K91Kan. Five milliliters of LB medium was then added and the samples were incubated at 37° C. overnight in a rotating microbial incubator. The E. coli was removed by centrifugation and the amplified phage supernatant samples were either titered directly or were PEG-precipitated, resuspended in TBS and titered. Following titration of the amplified phage, samples containing phage from each set of animals were combined, adjusting the titer of each sample to the same titer, and were plated for plaques on LB agar lates (22 cm^2 square plates). Either 12,000 or 24,000 phage were lated for plaques.
Thirty microliters of the collected systemic blood (neat and 10^−2, 10^−1, 10^−6 dilutions) was added to E. coli K91Kan cells, incubated at 37° C. for 10 min. Three ml of top agarose was then added and the samples were plated for plaques. One hundred microliters of the collected systemic blood was added to 100 μl of E. coli K91Kan, incubated at 37° C. for 10 min. Five milliliters of LB medium was then added and the samples were incubated at 37° C. overnight in a rotating microbial incubator. The E. coli was removed by centrifugation and the amplified phage supernatant samples were either titered directly or were PEG-precipitated, resuspended in TBS and titered. Following titration of the amplified phage, samples containing phage from each set of animals were combined, adjusting the titer of each sample to the same titer, and were plated for plaques on LB agar plates (22 cm^2 square plates). Either 12,000 or 24,000 phage were plated for plaques.
The intestinal tissue portion used in each closed loop was excised. […] Alternatively, the tissue (in PBS supplemented with protease inhibitors) was homogenized in an Ultra Thorex homogenizer, washed 3 times in PBS containing protease inhibitors and resuspended in PBS containing protease inhibitors (Int-G samples). In each case, serial dilutions (neat and 10^−2, 10^−4, 10^−6 dilutions) of the tissue homogenate was titered in E. coli.
The phage amplified from the portal blood, systemic blood and intestinal tissue was plated for plaques. […] The filters were air-dried, and the DNA was cross-linked to the filter (UV crosslinking: 2 min, high setting). The filters were incubated in pre-hybridization buffer (6×SSC, 5× Denhardt's solution, 0.1% SDS, […] yeast tRNA) at 40° C.–45° C. for at least 60 min.
Synthetic oligonucleotides, (22-mers), complimentary to regions coding for the receptor or binding sites used to create the preselected phage library, were synthesized (see Table 14 below).

[5] = target: T1, recombinant D2H receptor domain (human D2H transporter, amino acid residues 387-685), His-tag fusion protein (human); assay: phage ELISA on coated D2H
[6] = target: bovine serum albumin (bovine) (UniProt P02769); assay: phage ELISA on coated BSA
bovine serum albumin (bovine), sequence (P02769 25-607 limits assumed): as the sequence (P02769 25-607) above

[7] = target: T1, recombinant D2H receptor domain (human D2H transporter, amino acid residues 387-685), His-tag fusion protein (human); assay: phage ELISA, OD on D2H over OD on BSA

Row | Molecule | Rel. Stab. [1] | OD [5] | OD [6] | D2H/BSA [7] | other results
1 | C[C@@H](O)[C@H](NC(=O)[C@@H](N)CCCCNS(=O)(=O)c1cccc2c(N(C)C)cccc12)C(=O)N[C@@H](CCCNC(=N)N)C(=O)N[C@@H](CCCCN)C(=O)N[C@@H](CO)C(=O)N[C@@H](CO)C(=O)N[C@@H](CCCNC(=N)N)C(=O)N[C@@H](CO)C(=O)N[C@@H](CC(N)=O)C(=O)N1CCC[C@H]1C(=O)N[C@@H](CCCNC(=N)N)C(=O)NCC(=O)N[C@@H](CCCNC(=N)N)C(=O)N[C@@H](CCCNC(=N)N)C(=O)N[C@@H](Cc1c[nH]cn1)C(=O)N1CCC[C@H]1C(=O)NCC(N)=O [ZElan031] (H-K(Dansyl)TRKSSRSNPRGRRHPG-NH2) | 3 |  |  |  | 
2 | C[C@@H](O)[C@H](NC(=O)[C@@H](N)CCCCNS(=O)(=O)c1cccc2c(N(C)C)cccc12)C(=O)N[C@H](CCCNC(=N)N)C(=O)N[C@@H](CCCCN)C(=O)N[C@@H](CO)C(=O)N[C@@H](CO)C(=O)N[C@H](CCCNC(=N)N)C(=O)N[C@@H](CO)C(=O)N[C@@H](CC(N)=O)C(=O)N1CCC[C@H]1C(=O)N[C@H](CCCNC(=N)N)C(=O)NCC(=O)N[C@H](CCCNC(=N)N)C(=O)N[C@H](CCCNC(=N)N)C(=O)N[C@@H](Cc1c[nH]cn1)C(=O)N1CCC[C@H]1C(=O)NCC(N)=O [ZElan053, H2N-K(dns)TrKSSrSNPrGrrHPG-CONH2] (H-K(Dansyl)T[dR]KSS[dR]SNP[dR]G[dR][dR]HPG-NH2) | 1 |  |  |  | 
3 | C[C@@H](O)[C@H](NC(=O)[C@@H](N)CCCCNS(=O)(=O)c1cccc2c(N(C)C)cccc12)C(=O)N[C@@H](CCCNC(=N)N)C(=O)N[C@@H](CCCCN)C(=O)N[C@@H](CO)C(=O)N[C@@H](CO)C(=O)N[C@H](CCCNC(=N)N)C(=O)N[C@@H](CO)C(=O)N[C@@H](CC(N)=O)C(=O)N1CCC[C@H]1C(=O)N[C@@H](CCCNC(=N)N)C(=O)NCC(=O)N[C@H](CCCNC(=N)N)C(=O)N[C@@H](CCCNC(=N)N)C(=O)N[C@@H](Cc1c[nH]cn1)C(=O)N1CCC[C@H]1C(=O)NCC(N)=O [ZElan054, H2N-K(dns)TRKSSrSNPRGrRHPG-CONH2] (H-K(Dansyl)TRKSS[dR]SNPRG[dR]RHPG-NH2) | 2 |  |  |  | 
4 | H-K(Dansyl)STPPSREAYSRPYSVDSDSDTNAKHSSHNRRLRTRSRPNG-NH2 [ZElan018] |  |  |  |  | Binding of dansylated peptide to P100 fraction ([2]; repeat assay, compared with scrambled PAX2 control): indistinguishable from the scrambled PAX2 control; Binding value at 20 μg/ml ([3]; 20 μg/ml): −0.33; Binding value at 50 μg/ml ([3]; 50 μg/ml): 0.95
5 | SDHALGTNLRSDNAKEPGDYNCCGNGNSTGRKVFNRRRPSAIPT (not fully specified; cysteine pairing not given here) [HAX42] |  |  |  |  | BSA (BSA): 0.071 OD; Presence in the portal or systemic circulation [4]: found in the portal and systemic circulation; Peptide/particle binding correlation ([2]; in words): correlated well
6 | SQGSKQCMQYRTGRLTVGSEYGCGMNPARHATPAYPARLLPRYR [phage DCX11] |  | 0.222 OD 650 nm | 0.071 OD 650 nm | 3 | 
7 | RYSGLSPRDNGPACSQEATLEGCGAQRLMSTRRKGRNSRPGWTL [phage DCX42] |  | 0.158 OD 650 nm | 0.065 OD 650 nm | 2 | 
8 | RYKHDIGCDAGVDKKSSSVRGGCGAHSSPPRAGRGPRGTMVSRL [phage DCX8] |  | 0.163 OD 650 nm | 0.063 OD 650 nm | 3 | 
